# Results taken from US10053447B2, “Fluorescent compounds” (Pierce Biotechnology, Inc, priority 2010, dated 2018).
# Assays:
# [1] = Storage stability at 50° C. under argon; assay type: physicochemical
# Experimental: (§1) The inventive compounds were evaluated for stability. All compounds were packed under argon in plastic vials. The vials sere sealed with a drying pad in an aluminium coated pouch, and then stored at 50° C. for seven days. The results of the stability study for selected compounds are shown below:
# Purity was determined based on ester activity.
# as §1, with “stability compared to commercial dyes.” for “stability.”, “argon as 1 mg portions” for “argon”, “14” for “seven”
# The inventive compound 755 Compound 1 (isomer 1)-NHS was evaluated for stability. The compound was packed under argon in plastic vials. The vials sere sealed with a drying pad in an aluminium coated pouch, and then stored at 50° C. for 14 days. Purity was determined by HPLC before and after storage.
# streptavidin (SA) = streptavidin (SA) (Streptomyces avidinii, UniProt P22629); experiment: Labeling efficiency (degree of labeling, mole dye to mole protein ratio) of streptavidin; details: for Compound/Protein SA in PBS purified by PDRR / Compound/Protein SA in PBS purified by gel filtration: PBS pH 7.2; for Compound/Protein SA in PBS purified by PDRR / Compound/Protein SA in PBS purified by gel filtration / Compound/Protein SA in borate purified by gel PDRR / Compound/Protein SA in borate purified by gel filtration: molar excess given in the label; for Compound/Protein SA in borate purified by gel PDRR / Compound/Protein SA in borate purified by gel filtration: borate buffer pH 8.5
# Chain of streptavidin (SA) (P22629 25-183, species assumed): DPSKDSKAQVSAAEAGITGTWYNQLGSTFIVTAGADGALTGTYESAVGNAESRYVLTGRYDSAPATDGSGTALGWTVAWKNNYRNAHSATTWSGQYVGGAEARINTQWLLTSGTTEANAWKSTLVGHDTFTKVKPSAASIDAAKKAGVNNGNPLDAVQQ
# Experimental: Inventive and commercial compounds, each as the NHS ester, were conjugated to goat anti-mouse (GAM), goat anti-rabbit (GAR) antibodies, and streptavidin (SA). GAM, GAR, and SA, at 10 mg/ml in phosphate buffered saline (PBS), were dialyzed against 50 mM borate buffer, pH 8.5. The compounds were reconstituted in dimethylformamide (DMF) at 10 mg/ml and combined at 2×, 4×, 5×, 7.5×, or 10× molar excess with GAM, GAR, or SA for 2 h at room temperature to label the antibodies or SA.
# The labeled compounds, also termed dyes or labels, were subjected to PDDR to remove the unlabeled (free) compound; 100 μl of the packed resin was used per mg of protein purified. The purified antibody-labeled dyes were then diluted 1:50 in PBS and scanned for absorbance from 700 nm to 230 nm to determine the protein concentration, and to determine the mole dye to mole protein ratio. Each conjugate was diluted 1:10 in 50% glycerol and heated in the presence of 10 mM dithiothreitol (DTT) for 5 min at 95° C., then separated by electrophoresis on polyacrylamide gels in the presence of sodium dodecyl sulfate (SDS-PAGE). The gels were scanned using the Typhoon 9400 Imager to verify removal of the unconjugated compound. Labeling efficiency was compared, with results showing degree of labeling below.
# Compounds 1, 2, and 3, each as the NHS ester, and DyLight 649-NHS were conjugated to goat anti-mouse (GAM) and goat anti-rabbit (GAR) antibodies. GAM and GAR, at a concentration of 10 mg/ml in phosphate buffered saline (PBS), were dialyzed against 50 mM borate buffer, pH 8.5. The compounds were reconstituted in dimethylformamide (DMF) at 10 mg/ml. To label the antibodies, the compounds were added at 2.5× molar excess and 5× molar excess for 2 h at room temperature. Streptavidin (SA) was reconstituted in PBS buffer, pH 7.2, and 50 mM borate buffer, pH 8.5, and labeled with 2.5× molar excess and 4× molar excess of the compound.
# The antibody-labeled compounds, also termed dyes or labels, were subjected to gel filtration chromatography (15 cm×0.8 cm columns) or to the PDDR to remove the unlabeled (free) compound; 100 μl of the packed resin was used per mg of protein purified. The purified antibody-labeled dyes were then diluted 1:100 in PBS and scanned for absorbance from 700 nm to 230 nm to determine the protein concentration, and to determine the mole dye to mole protein ratio. Each conjugate was diluted 1:10 in 50% glycerol and heated in the presence of 10 mM dithiothreitol (DTT) for 5 min at 95° C., then separated by electrophoresis on polyacrylamide gels in the presence of sodium dodecyl sulfate (SDS-PAGE). The gels were scanned using the Typhoon 9400 Imager to verify removal of the unconjugated compound. Labeling efficiency was compared using labeling of the compounds to GAM antibody at a 2.5× molar excess of compound, with results shown below.
# Labeling efficiency was also compared using labeling of the dyes to streptavidin (SA) at either a 2.5 fold or a 4 fold molar excess of the dye, with SA in PBS, pH 7.2, and borate buffer, pH 8.5.
# 650 Compound 1 (isomer 2)-TFP, 650 Compound 1 (isomer 1)-TFP, 650 Compound 1 (isomer 2)-TFP, 650 Compound 1-NHS, and DyLight 649-NHS were conjugated to GAM, GAR, and SA. GAM and GAR, at a concentration of 10 mg/ml in phosphate buffered saline (PBS), were dialyzed against 50 mM borate buffer, pH 8.5. The compounds were reconstituted in dimethylformamide (DMF) at 10 mg/ml and used to label antibodies at 5× molar excess of compound for two hours at room temperature to label the antibodies. SA was reconstituted in 50 mM borate buffer, pH 8.5, and combined with 4× molar excess to label the SA.
# The antibody-conjugated and SA-conjugated compounds, also termed dyes or labels, were subjected to the PDDR to remove the unlabeled (free) compound. The purified antibodies and SA were then diluted 1:25 in PBS and scanned for absorbance from 700 nm to 230 nm to determine the protein concentration, and to determine the mole dye to mole protein ratio. […]
# U2OS cells; A550 cells = experiment: Immunofluorescence cell based assays, summary statements; parameters: species or system human; details: GAM and GAR conjugates
# Experimental: The inventive compounds and commercial dye were evaluated for immunofluorescence in cell based assays using the following protocol. Plates containing U2OS cells (human osteosarcoma cell line) were fixed in 4% paraformaldehyde in PBS/0.1% Triton X-100 for 15 min at room temperature. The cells were then permeabilized with 2% BSA in PBS/0.1% Triton X-100 for 30 min at room temperature. Diluted primary antibodies in PBS/0.1% Triton X-100 were added to the plates and incubated overnight at 4° C. The plates were washed 3×100 μl with PBS. Based on the calculated protein concentrations, the conjugates were diluted to 4 μg/ml (1:250 from 1 mg/ml stock) in PBS/0.1% Triton X-100 and added to the plates (50 μl/well) and incubated 1 h in the dark at room temperature. The plates were washed 3×100 μl with PBS. One hundred μl of 2 μg/ml Hoechst dye in PBS was added per well. The plates were then scanned on an ArrayScan® Plate Reader for imaging and quantitation.
# The inventive compounds and commercial dyes were evaluated for immunofluorescence in cell based assays using the following protocol. Plates containing A550 cells (adenocarcinoma human alveolar basal epithelial cells, P5, Sep. 23, 2010) and stored at −80° C. were placed at 50° C. for 30 min. The storage buffer (PBS) was removed and then the cells were permeabilized for 15 min (100 μl/well) with 0.1% Triton-X100 in 1×PBS buffer. The plates were blocked for 30 min in 2% BSA in 1×PBS-0.1% Triton-X100 and then incubated with primary antibodies diluted in 2% BSA in 1×PBS, 0.1% Trion-X100, overnight at 4° C. […] The remaining wells were incubated in blocking buffer only (no primary antibody). After overnight incubation, the antibody solution was removed from the wells, and the plates were washed with PBS-Tween (2×100 μl/well). The labeled secondary antibody conjugates, diluted to 4 μg/ml in PBS were added to corresponding wells and incubated for 1 h at room temperature (about 20° C. to about 22° C.). The plates were washed 3×100 μl/well with PBS and Hoechst stain diluted 1 μg/ml in PBS were added to each well (100 μl/well) of each plate. The plates were then scanned on the Thermo Scientific ArrayScan® HCS Reader for imaging and quantitation.
# [2] = Spectral properties of the dyes compared with commercially available dyes; assay type: physicochemical; details: reactive ester form of the dye
# [3] = unit size 1 mg, 50° C. for seven days, purity based on ester activity
# [4] = amount 1 mg, 50° C. for 14 days (650 series)
Compound,"Purity at day 1 [1, 3]","Purity at day 7 [1, 3]",Compound/Protein SA in PBS purified by PDRR (streptavidin (SA)),Compound/Protein SA in PBS purified by gel filtration (streptavidin (SA)),Compound/Protein SA in borate purified by gel PDRR (streptavidin (SA)),Compound/Protein SA in borate purified by gel filtration (streptavidin (SA)),further results
"COCCN1/C(=C/C=C/C2=[N+](CCCCCC(=O)Oc3c(F)c(F)cc(F)c3F)c3ccc(S(=O)(=O)[O-])cc3C2(C)CCCS(=O)(=O)O)C(C)(CCCS(=O)(=O)O)c2cc(S(=O)(=O)O)ccc21 (single isomer, unassigned) [550 Compound 1 (isomer 1)-TFP]",97%,96%,,,,,
"COCCN1/C(=C/C=C/C2=[N+](CCCCCC(=O)NCCN3C(=O)C=CC3=O)c3ccc(S(=O)(=O)[O-])cc3C2(C)CCCS(=O)(=O)O)C(C)(CCCS(=O)(=O)O)c2cc(S(=O)(=O)O)ccc21 (single isomer, unassigned) [550 Compound 1(isomer 1)-maleimide]",99%,97%,,,,,
"COCCN1/C(=C/C=C/C2=[N+](CCCCCC(=O)NCCN3C(=O)C=CC3=O)c3ccc(S(=O)(=O)[O-])cc3C2(C)CCCS(=O)(=O)O)C(C)(CCCS(=O)(=O)O)c2cc(S(=O)(=O)O)ccc21 (single isomer, unassigned) [550 Compound 1(isomer 2)-maleimide]",98%,97%,,,,,
"COCCN1/C(=C/C=C/C=C/C2=[N+](CCCCCC(=O)Oc3c(F)c(F)cc(F)c3F)c3ccc(S(=O)(=O)[O-])cc3C2(C)CCCS(=O)(=O)O)C(C)(CCCS(=O)(=O)O)c2cc(S(=O)(=O)O)ccc21 (single isomer, unassigned) [650 Compound 1 (isomer 2)-TFP]",,,,,,,"SA (4X) Average (mole dye to mole protein ratio) (streptavidin (SA); TFP or NHS ester, 4X molar excess, borate buffer pH 8.5, PDRR): 2.42"
"COCCN1/C(=C/C=C/C2=[N+](CCCCCC(=O)O)c3ccc(S(=O)(=O)[O-])cc3C2(C)CCCS(=O)(=O)O)C(C)(CCCS(=O)(=O)O)c2cc(S(=O)(=O)O)ccc21 (stereo not shown) [550 Compound 1, 2-{(E)-3-[1-(5-carboxypentyl)-3-methyl-5-sulfo-3-(3-sulfopropyl)-1,3-dihydro-indol-(2E)-ylidene]-propenyl}-1-(2-methoxy-ethyl)-3-methyl-5-sulfo-3-(3-sulfo-propyl)-3H-indolium]",,,,,,,"Immunofluorescence performance of conjugates compared with commercial DyLight dye (U2OS cells; A550 cells): at least similar performance to DyLight 549 conjugates (GAM, GAR), and in some cases superior performance"
COCCN1/C(=C/C=C/C=C/C2=[N+](CCCCCC(=O)Oc3c(F)c(F)cc(F)c3F)c3ccc(S(=O)(=O)[O-])cc3C2(C)CCCS(=O)(=O)O)C(C)(CCCS(=O)(=O)O)c2cc(S(=O)(=O)O)ccc21 (stereo not shown) [650 Compound 1-TFP],,,,,,,"Emission (Em) [2]: 672 nm; Excitation (Ex) [2]: 654 nm; ε [2]: 250,000 M−1cm−1; Purity at day 1 [1, 4]: 98%; Purity at day 14 [1, 4]: 97%"
Alexa 647-SA-(2.5X): Alexa 647 conjugated to streptavidin (SA) [reference compound],,,3.5,3.9,2.4,2.6,Compound/Protein SA in borate purified by gel PDRR (streptavidin (SA); listed as Alexa647-SA-4X): 3.4; Compound/Protein SA in borate purified by gel filtration (streptavidin (SA); listed as Alexa647-SA-4X): 3.9
Cy5-SA (2.5X): Cy5 conjugated to streptavidin (SA) [reference compound],,,3.8,4.2,2.0,2.3,Compound/Protein SA in borate purified by gel PDRR (streptavidin (SA); listed as Cy5-SA-4X): 3.3; Compound/Protein SA in borate purified by gel filtration (streptavidin (SA); listed as Cy5-SA-4X): 3.8
DyLight 649-SA (2.5X): DyLight 649 conjugated to streptavidin (SA); suffix gives molar excess of dye [reference compound],,,2.6,3.5,2.2,2.3,Compound/Protein SA in borate purified by gel PDRR (streptavidin (SA); listed as DyLight 649-SA-4X): 2.9; Compound/Protein SA in borate purified by gel filtration (streptavidin (SA); listed as DyLight 649-SA-4X): 3.5
